Laboratory results reported in patent US6110695A, “Modulating the interaction of the chemokine, B Lymphocyte Hemoattractant, and its Receptor, BLR1” (The Regents of the University of California, priority 1997, dated 2000).

B1: BLC: novel CXC chemokine; baculovirus-expressed mouse BLC (SEQ ID NO:2), mature protein starting at isoleucine 22 (protein)
chain: MRLSTATLLLLLASCLSPGHGILEAHYTNLKCRCSGVISTVVGLNIIDRIQVTPPGNGCPKTEVVIWTKMKKVICVNPRAKWLQRLLRHVQSKSLSSTPQAPVSKRRAA

Experiments:
B cells = test: Transwell chemotaxis of spleen B cells; assay type: cell-based, mouse
Experimental: (§1) FIGS. 1(a)-(g). Chemotactic activity of BLC on leukocyte subtypes. Results are expressed as the percentage of input cells of each subtype migrating to the lower chamber of a Transwell filter. FIG. 1a show migration of B cells; FIG. 1b, CD4+T cells; FIG. 1c, CD8+T cells; FIG. 1d; granulocytes; and FIG. 1e, monocytes/macrophages to BLC. Positive controls are SDF1a (FIGS. 1a, b, c, e) and IL8 (FIG. 1d). […] BLC was added to the upper or lower chamber of the apparatus as indicated. […] Data points with error bars represent the mean 1 s.d. for triplicates; individual data points are shown for duplicates. Each experiment was performed a minimum of two times.
(§2) To test this possibility, chemotaxis assays were performed with lymphocytes from mouse spleen and baculovirus-expressed BLC estimated to bc greater than 95% pure by silver staining. […] An alternative possibility is that high potency is not rcquired for a chemokine that is expressed constitutively within lymphoid tissues.
(§3) Chemotaxis. Lymphocytes and macrophages were obtained from spleens of C57BL/6 mice. For macrophage chemotaxis, B cells were depleted by passage over a MACS column (Milteny Biotec, Auburn, Calif.) after incubation with biotinylated anti-B220 antibodies and streptavidin-coated magnetic beads. Granulocytes were obtained from mouse bone marrow suspensions. Mouse BLR1 transfected Jurkat cells were obtained by transfection with pREP4 containing the mouse BLR1 coding region (16), isolated by RT-PCR from mouse spleen RNA, and an amino terminal prolactin leader sequence and FLAG epitope (23). Positive clones were identified using the anti-FLAG antibody M1 (Kodak). Chemotaxis assays were performed as previously described (15) and subsets of migrating cells were identified by flow cytometry using antibodies specific for B220, CD4, CD8 (Pharmingen, San Diego, Calif.) and Mac-1 (Caltag, South San Francisco, Calif.). Granulocytes were identified by their characteristic large side scatter profile. In some experiments, cells were preincubated with 100 ng/ml pertussis toxin (List Biol. Labs, Campbell, Calif.) for 2 hrs at 37° C. IL-8 (R&D Systems, Minneapolis, Minn.) and synthetic human SDF1 a (N33A) synthesized by native chemical ligation (Gryphon Sciences, South San Francisco) were used as positive controls. SDF1a (N33A) has identical activity to native human and mouse SDF1a (24, 25).

BLR1- negative cells = test: Chemotaxis of BLR1-negative Jurkat cells; assay type: cell-based
Experimental: (§4) We therefore tested whether BLC could signal through BLR1. […] Using BLR1 transfected 300-19 pre-B cells a more complete dose response curve was obtained showing that the response to BLC is saturable (FIG. 2e). […] We next tested the ability of BLC to stimulate chemotaxis through BLR1.
as §3, with “In some experiments, cells were preincubated with 100 ng/ml pertussis toxin (List Biol. Labs, Campbell, Calif.) for 2 hrs at 37° C. IL-8 (R&D Systems, Minneapolis, Minn.) and synthetic human SDF1 a (N33A) synthesized by native chemical ligation (Gryphon Sciences, South San Francisco) were used as positive controls. SDF1a (N33A) has identical activity to native human and mouse SDF1a (24, 25).” left out

CXCR2 = test: Calcium flux in 293 cells transfected with CXCR2; assay type: cell-based; details: 293 cells transfected with CXCR2, FIG. 2d
Text: (§5) FIG. 2(a)-(f). BLR1-mediated calcium mobilization and chemotaxis in response to BLC. HEK 293 cells, stably transfected with the indicated chemokine receptors (FIGS. 2a-d), were loaded with the calcium probe Indo-1 and assayed by spectrofluorimetry for changes in intracellular calcium in response to BLC. FIG. 2a, Calcium flux as a function of BLC concentration (nM). FIG. 2b, Specificity of the response of BLR1 to BLC. FIG. 2c, Lack of response to BLC in CCR1-transfected cells. FIG. 2d, Lack of response to BLC in CXCR2-transfected cells. FIG. 2e, Percentage of maximal calcium flux as a function of BLC concentration in BLR1-transfected 300-19 cells. FIG. 2f, Chemotactic response of BLR1-transfected Jurkat cells to BLC. Results of chemotaxis are expressed as in FIG. 1.
as §4
(§6) Calcium fluorimetry on transfected 293 and 300-19 cells. Native mouse BLR1 was subcloned into pBK-CMV (Stratagene) and used to transfect HEK 293 cells and 300-19 pre-B cells. […] Intracellular calcium concentrations were calculated using the Hitachi 4500 Intracellular Cation Measurement program.

CCR2 = test: Calcium flux in 293 cells transfected with CCR2; assay type: cell-based
Experimental: as §4
(§7) Calcium fluorimetry on transfected 293 and 300-19 cells. Native mouse BLR1 was subcloned into pBK-CMV (Stratagene) and used to transfect HEK 293 cells and 300-19 pre-B cells. G418-resistant clones were tested for BLR1 expression using an affinity purified rabbit anti-mouse antiserum that is specific for the BLR1 amino terminus. HEK293 cells expressing CCR1, CCR2 and CXCR2 were from the Cardiovascular Research Institute, UCSF. Ca2+-mobilization studies were performed as described (26) using a Hitachi 4500 spectrometer. Intracellular calcium concentrations were calculated using the Hitachi 4500 Intracellular Cation Measurement program.

CCR1 = test: Calcium flux in 293 cells transfected with CCR1; assay type: cell-based; details: 293 cells transfected with CCR1, FIG. 2c
Text: as §5, §4, §6

BLR1 [1] = test: Calcium flux in BLR1 transfected 300-19 pre-B cells; assay type: cell-based, mouse; details: FIG. 2e
Text: as §5, §4, §6

[2] = tested on: spleen monocytes/macrophages; test: Transwell chemotaxis of spleen monocytes/macrophages; assay type: cell-based, mouse; details: FIG. 1e
Experimental: as §1, §2
(§8) Chemotaxis. Lymphocytes and macrophages were obtained from spleens of C57BL/6 mice. For macrophage chemotaxis, B cells were depleted by passage over a MACS column (Milteny Biotec, Auburn, Calif.) after incubation with biotinylated anti-B220 antibodies and streptavidin-coated magnetic beads. Granulocytes were obtained from mouse bone marrow suspensions. […]

CD4 and CD8 T cells = test: Transwell chemotaxis of spleen CD4 and CD8 T cells; assay type: cell-based; details: mouse spleen lymphocytes, FIG. 1b, c
Experimental: as §1, §2, §8

granulocytes = test: Transwell chemotaxis of bone marrow granulocytes; assay type: cell-based, mouse; details: FIG. 1d
Experimental: as §1, §2, §8

mouse BLR1 = test: Calcium flux in HEK 293 cells stably transfected with mouse BLR1; assay type: cell-based; details: HEK 293 cells stably transfected with mouse BLR1, FIG. 2a, b
Text: as §5, §4, §6

Control transfectants = test: Calcium flux in control transfectants of 293 and 300-19 cells; assay type: cell-based; details: control transfectants of either cell line (293, 300-19)
Experimental: as §4, §7

BLR1 [3] = test: Chemotaxis of BLR1 transfected Jurkat T cells; assay type: cell-based, mouse; details: Jurkat T cells transfected with BLR1
Text: as §5, §4, §8

| Molecule | BLC-induced migration of pertussis toxin pretreated B cells (B cells; preincubated with 100 ng/ml pertussis toxin for 2 hrs at 37° C., FIG. 1g) | chemotactic response (BLR1- negative cells) | calcium flux (CXCR2) | calcium flux (CCR2) | calcium flux (CCR1) | calcium flux dose response (BLR1 [1]) | chemotactic activity for spleen monocytes/macrophages [2] | chemotactic activity towards CD4 and CD8 T cells (CD4 and CD8 T cells) | chemotactic activity towards granulocytes (granulocytes) | potency as a B cell attractant (B cells; baculovirus expressed protein, compared with most chemokines) | migration of cells in the absence of a gradient (B cells; cells incubated with BLC in the absence of a gradient, FIG. 1f) | chemotactic response in B cells (B cells; mouse spleen lymphocytes, FIG. 1a) | calcium flux (mouse BLR1) | calcium flux response (Control transfectants) | chemotactic response (BLR1 [3]) |
| --- | --- | --- | --- | --- | --- | --- | --- | --- | --- | --- | --- | --- | --- | --- | --- |
| pertussis toxin [reference compound] | failed to migrate | – | – | – | – | – | – | – | – | – | – | – | – | – | – |
| B1 | – | failed to respond | failed to stimulate a calcium flux | failed to stimulate a calcium flux | failed to stimulate a calcium flux | saturable | weak but reproducible chemotactic activity | limited activity | no chemotactic activity | potency less than that of most chemokines | failed to migrate | strong chemotactic response | dose dependent calcium flux | did not respond | showed a chemotactic response |
